According to patent US12721795B2, “Personal dental care product for preventing demineralisation” (CREDENTIS AG, priority 2019, dated 2026):
Entries after “also recorded” stand apart in the source; their conditions may differ.

Key:
[1] = Determination of fibres eluting from matrix (TEM of artificially chewed toffee-saliva); type: physicochemical; conditions: toffee with assembled P11-4 (35 mg/ml), 3 mL artificial saliva, artificial chew 5 min
Protocol: Sample: • Place 1 toffee with or without assembled P11-4 (35 mg/ml) in artificial saliva 3 mL (cf. Example 2) • Artificial chew for 5 min in artificial mastication equipment. • Remove supernatant (saliva) Method TEM • Dilute sample (10 mg/mL) with H2O at a ratio of 1:63 • Place 1 μL of control solution on TEM-grid Sample • Place 20 μL of water on a parafilm • Place gently the TEM Grid with dark site facing upwards on the parafilm, close to the drop • Application of 10 μL sample on TEM carbon coated grids (hexagonal) • 10 min incubation • Remove unbound sample with a paper tissue • Put the grid into 3% Uranylacetate solution 20 ul • 40 sec incubation • Remove unbound Uranylacetate with a paper tissue • Wash the grid 2 times with distilled water • pipet 5 μL droplet on top of the grid and remove it • Dry it for 20 min at RT • Introduce sample into sample holder for TEM • Analyse @ 50 kV, Vacuum at least 9*10-6 hPa

[2] = cited from earlier work; for pH at which the peptide starts to undergo self-assembly: in solution

QQRFEWEFEQQ (self-assembling peptide P11-4)
assembled fibres of peptide in artificial saliva after mastication (TEM) [1]: distinct fibre bundle; also recorded: maintains its assembled form | pH at which the peptide starts to undergo self-assembly [2]: about 7.5 | assembly state ([2]; ionic strength corresponding to 150 mM NaCl, neutral pH (Carrick et al., 2007)): assembled

terminally modified P11-4: peptide P11-4 that is N-terminally acetylated and C-terminally amidated with a NH2-group (Ac-QQRFEWEFEQQ-NH2)
pH at which the peptide starts to undergo self-assembly [2]: about 7.5
